# B1: Vang-like protein 1 (Homo sapiens), Q8TAA9 (parent)
# chain: MDTESTYSGYSYYSSHSKKSHRQGERTRERHKSPRNKDGRGSEKSVTIQPPTGEPLLGNDSTRTEEVQDDNWGETTTAITGTSEHSISQEDIARISKDMEDSVGLDCKRYLGLTVASFLGLLVFLTPIAFILLPPILWRDELEPCGTICEGLFISMAFKLLILLIGTWALFFRKRRADMPRVFVFRALLLVLIFLFVVSYWLFYGVRILDSRDRNYQGIVQYAVSLVDALLFIHYLAIVLLELRQLQPMFTLQVVRSTDGESRFYSLGHLSIQRAALVVLENYYKDFTIYNPNLLTASKFRAAKHMAGLKVYNVDGPSNNATGQSRAMIAAAARRRDSSHNELYYEEAEHERRVKKRKARLVVAVEEAFIHIQRLQAEEQQKAPGEVMDPREAAQAIFPSMARALQKYLRITRQQNYHSMESILQHLAFCITNGMTPKAFLERYLSAGPTLQYDKDRWLSTQWRLVSDEAVTNGLRDGIVFVLKCLDFSLVVNVKKIPFIILSEEFIDPKSHKFVLRLQSETSV
# partner: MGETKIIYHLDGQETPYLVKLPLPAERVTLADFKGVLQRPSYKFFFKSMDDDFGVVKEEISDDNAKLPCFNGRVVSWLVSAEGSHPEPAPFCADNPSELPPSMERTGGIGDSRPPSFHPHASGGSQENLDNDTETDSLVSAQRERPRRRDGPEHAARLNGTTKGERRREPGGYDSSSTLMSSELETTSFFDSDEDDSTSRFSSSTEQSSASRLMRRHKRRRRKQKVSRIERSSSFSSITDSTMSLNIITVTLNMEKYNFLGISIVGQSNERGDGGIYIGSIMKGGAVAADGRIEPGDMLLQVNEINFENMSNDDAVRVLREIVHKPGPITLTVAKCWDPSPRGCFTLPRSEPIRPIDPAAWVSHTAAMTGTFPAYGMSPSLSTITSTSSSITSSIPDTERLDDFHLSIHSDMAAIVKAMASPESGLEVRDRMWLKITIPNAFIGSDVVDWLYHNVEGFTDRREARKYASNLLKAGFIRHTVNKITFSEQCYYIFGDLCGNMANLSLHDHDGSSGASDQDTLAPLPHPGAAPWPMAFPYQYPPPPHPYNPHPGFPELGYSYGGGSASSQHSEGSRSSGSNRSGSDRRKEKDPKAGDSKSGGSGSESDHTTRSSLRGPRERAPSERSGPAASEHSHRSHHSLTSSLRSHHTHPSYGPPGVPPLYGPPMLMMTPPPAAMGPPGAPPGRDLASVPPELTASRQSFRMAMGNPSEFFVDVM
# B2: Vang-like protein 1 (Homo sapiens), Q8TAA9 (parent)
# chain: B1 chain
# partner: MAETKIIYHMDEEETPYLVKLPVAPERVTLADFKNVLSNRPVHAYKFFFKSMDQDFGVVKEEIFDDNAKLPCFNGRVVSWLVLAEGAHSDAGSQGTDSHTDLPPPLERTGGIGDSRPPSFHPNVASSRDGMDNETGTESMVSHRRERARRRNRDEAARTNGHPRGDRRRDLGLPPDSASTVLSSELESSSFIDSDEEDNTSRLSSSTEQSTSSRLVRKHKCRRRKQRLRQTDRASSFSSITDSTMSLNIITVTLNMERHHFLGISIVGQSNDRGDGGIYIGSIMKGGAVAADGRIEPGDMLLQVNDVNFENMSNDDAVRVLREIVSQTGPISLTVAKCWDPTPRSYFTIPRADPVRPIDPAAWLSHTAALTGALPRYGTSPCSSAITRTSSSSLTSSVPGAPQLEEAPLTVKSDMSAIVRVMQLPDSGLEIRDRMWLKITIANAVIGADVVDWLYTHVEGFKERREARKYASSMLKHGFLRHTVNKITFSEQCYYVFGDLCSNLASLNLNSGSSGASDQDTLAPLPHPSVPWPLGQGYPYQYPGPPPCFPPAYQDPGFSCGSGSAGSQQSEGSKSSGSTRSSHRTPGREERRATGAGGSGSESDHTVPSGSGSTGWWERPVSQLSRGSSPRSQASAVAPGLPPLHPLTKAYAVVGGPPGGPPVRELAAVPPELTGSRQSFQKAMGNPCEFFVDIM
# B3: Vang-like protein 1 (Homo sapiens), Q8TAA9 (parent)
# chain: B1 chain
# partner: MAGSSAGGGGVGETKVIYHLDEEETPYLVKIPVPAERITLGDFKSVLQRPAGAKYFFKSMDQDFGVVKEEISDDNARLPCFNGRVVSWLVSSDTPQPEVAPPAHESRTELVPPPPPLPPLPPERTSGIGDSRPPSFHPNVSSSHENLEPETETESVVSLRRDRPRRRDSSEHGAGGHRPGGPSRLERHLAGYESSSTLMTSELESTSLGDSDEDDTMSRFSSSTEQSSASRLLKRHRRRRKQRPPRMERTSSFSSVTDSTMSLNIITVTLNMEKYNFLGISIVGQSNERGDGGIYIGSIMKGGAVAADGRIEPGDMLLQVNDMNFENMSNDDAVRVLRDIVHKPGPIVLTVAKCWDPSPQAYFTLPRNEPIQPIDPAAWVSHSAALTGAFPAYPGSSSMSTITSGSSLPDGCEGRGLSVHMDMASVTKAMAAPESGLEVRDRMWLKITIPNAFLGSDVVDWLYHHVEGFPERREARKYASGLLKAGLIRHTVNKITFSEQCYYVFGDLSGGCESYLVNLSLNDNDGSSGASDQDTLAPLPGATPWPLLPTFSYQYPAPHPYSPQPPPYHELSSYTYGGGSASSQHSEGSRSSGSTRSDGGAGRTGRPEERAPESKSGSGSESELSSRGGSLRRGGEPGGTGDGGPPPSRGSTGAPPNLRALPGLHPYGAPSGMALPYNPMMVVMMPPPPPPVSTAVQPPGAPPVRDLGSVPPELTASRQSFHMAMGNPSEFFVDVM
# Variants of: B1
# Conditions: with dvl3_mouse Dvl3, Q61062
row,Variant,effect of a mutation on the interaction
1,M328T,with no effect
2,D259E,disrupting interaction strength
3,S467N,with no effect
4,R274Q,with no effect
5,V239I,disrupting interaction strength

# Variants of: B2
# Conditions: with dvl1_mouse Dvl1, P51141
row,Variant,effect of a mutation on the interaction
1,R274Q,with no effect
2,V239I,disrupting interaction strength
3,S467N,disrupting interaction strength
4,D259E,disrupting interaction strength
5,M328T,with no effect

# Variants of: B3
# Conditions: with dvl2_mouse Dvl2, Q60838
row,Variant,effect of a mutation on the interaction
1,M328T,with no effect
2,D259E,disrupting interaction strength
3,S467N,decreasing interaction strength
4,V239I,disrupting interaction strength
5,R274Q,with no effect
